B1: CXCR4: N15A (protein)
parent chain: MSIPLPLLQIYTSDNYTEEMGSGDYDSMKEPCFREENANFNKIFLPTIYSIIFLTGIVGNGLVILVMGYQKKLRSMTDKYRLHLSVADLLFVITLPFWAVDAVANWYFGNFLCKAVHVIYTVNLYSSVLILAFISLDRYLAIVHATNSQRPRKLLAEKVVYVGVWIPALLLTIPDFIFANVSEADDRYICDRFYPNDLWVVVFQFQHIMVGLILPGIVILSCYCIIISKLSHSKGHQKRKALKTTVILILAFFACWLPYYIGISIDSFILLEIIKQGCEFENTVHKWISITEALAFFHCCLNPILYAFLGAKFKTSAQHALTSVSRGSSLKILSKGKRGGHSSVSTESESSSFHSS
B2: CXCR4: N15A/N180A (protein)
parent chain: MSIPLPLLQIYTSDNYTEEMGSGDYDSMKEPCFREENANFNKIFLPTIYSIIFLTGIVGNGLVILVMGYQKKLRSMTDKYRLHLSVADLLFVITLPFWAVDAVANWYFGNFLCKAVHVIYTVNLYSSVLILAFISLDRYLAIVHATNSQRPRKLLAEKVVYVGVWIPALLLTIPDFIFANVSEADDRYICDRFYPNDLWVVVFQFQHIMVGLILPGIVILSCYCIIISKLSHSKGHQKRKALKTTVILILAFFACWLPYYIGISIDSFILLEIIKQGCEFENTVHKWISITEALAFFHCCLNPILYAFLGAKFKTSAQHALTSVSRGSSLKILSKGKRGGHSSVSTESESSSFHSS
B3: CXCR4: N180A (protein)
parent chain: MSIPLPLLQIYTSDNYTEEMGSGDYDSMKEPCFREENANFNKIFLPTIYSIIFLTGIVGNGLVILVMGYQKKLRSMTDKYRLHLSVADLLFVITLPFWAVDAVANWYFGNFLCKAVHVIYTVNLYSSVLILAFISLDRYLAIVHATNSQRPRKLLAEKVVYVGVWIPALLLTIPDFIFANVSEADDRYICDRFYPNDLWVVVFQFQHIMVGLILPGIVILSCYCIIISKLSHSKGHQKRKALKTTVILILAFFACWLPYYIGISIDSFILLEIIKQGCEFENTVHKWISITEALAFFHCCLNPILYAFLGAKFKTSAQHALTSVSRGSSLKILSKGKRGGHSSVSTESESSSFHSS

Assay: Western blot after 125 nM CXCL12, 30 min, HEK 293T
Settings: glycan lost; control: wild type

Protein | degradation_or_half_life
B1 | increases
B2 | increases
B3 | no change
